Laboratory results published in article PMC3305072.

Assays:
[1] = SEC; Superdex 200 GL 10/300, PBS pH 7.5, protein injected at 120 µM, 0.5 mL/min, A280; percent of monomeric, dimeric and high molecular weight species
[2] = SEC; Superdex 200 GL 10/300, PBS pH 7.5, protein injected at 50 µM, 0.5 mL/min, A280; percent of monomeric, dimeric and high molecular weight species
[3] = SEC; Superdex 200 GL 10/300, PBS pH 7.5, protein injected at 10 µM, 0.5 mL/min, A280; percent of monomeric, dimeric and high molecular weight species
[4] = biological target: BlaP(Gln)79 (Bacillus licheniformis 749/C); assay: SEC; Superdex 200 GL 10/300, PBS pH 7.5, protein injected at 120 µM, 0.5 mL/min, A280; percent of monomeric, dimeric and high molecular weight species

stoichiometry N [4] | Substance | % dimeric species (SEC) [1] [%] | % dimeric species (SEC) [2] [%] | % high molecular weight oligomeric species (SEC) [1] [%] | % high molecular weight oligomeric species (SEC) [2] [%] | % dimeric species (SEC) [3] [%] | % high molecular weight oligomeric species (SEC) [3] [%]
– | BlaP(Gln)23 | 0.7 | 0.6 | – | – | – | –
– | BlaP(Gln)30 | 0.5 | 0.4 | – | – | – | –
– | BlaP(Gln)55 | 1.4 | 1.1 | – | – | – | –
– | BlaP(Gln)79 | 1.2 | 1.1 | 3.5 | 2.5 | 0.9 | 1.8
> 15 | BlaP(Gln)79 (enzyme) | – | – | – | – | – | –
– | β-lactamase from Bacillus licheniformis 749/C (BlaP) | 5.6 | 4.9 | – | – | – | –
